The values below are quoted from earlier work in paper PMC11970764.

The target in this data set is HIF-1α PAS-B (Homo sapiens) (UniProt Q16665). The data set can be described thus: ITC. On the technique in general: Isothermal titration calorimetry measures the heat released or taken up as one component is titrated into another.
UniProt Q16665, sequence (Q16665 238-349): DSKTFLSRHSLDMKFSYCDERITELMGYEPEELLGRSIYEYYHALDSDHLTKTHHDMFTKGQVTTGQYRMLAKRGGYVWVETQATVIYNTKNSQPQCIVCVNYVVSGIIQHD

As a reminder, the Kd is the free concentration of one partner at which half of the binding sites on the other are occupied at equilibrium, for simple one-to-one binding. Take Cyclo-C(TAT)LLFVY: the Kd is 124 nM.
